Literature values as cited in patent US9914774B2, “Notch pathway inhibition” (Genentech, Inc., priority 2014, dated 2018).
Read-outs that look alike come from different tables or passages of the source.

B1: 52M51: anti-Notch1 antibody 52M51, described in U.S. Pat. No. 8,435,513 (antibody, chains of the INN, looked up, V domains shown)
VH: QVQLVQSGAEVKKPGASVKISCKVSGYTLRGYWIEWVRQAPGKGLEWIGQILPGTGRTNYNEKFKGRVTMTADTSTDTAYMELSSLRSEDTAVYYCARFDGNYGYYAMDYWGQGTTVTVSS
VL: QAVVTQEPSLTVSPGGTVTLTCRSSTGAVTTSNYANWFQQKPGQAPRTLIGGTNNRAPGVPARFSGSLLGGKAALTLSGAQPEDEAEYYCALWYSNHWVFGGGTKLTVL

Columns and labels:
[1] = Phase 1a, patients with solid tumors
[2] = first-in-human phase I, advanced solid tumors

| Molecule | patients experienced diarrhea [1] [%] | patients experiencing grade 3 or higher diarrhea [1] [%] | patients experienced diarrhea [2] [%] |
| --- | --- | --- | --- |
| 59R5: anti-Notch antibody 59R5, described in U.S. Pat. No. 7,919,092 | 58 | 14 | – |
| B1 | – | – | 64 |
